Experimental data as given in patent publication US20260043817A1 (UNIVERSITY OF TOKYO, published 2026).

Target: T1, HA-tagged Fluc-DM (Fluc-HA-DM) (firefly, UniProt P08659 1-550 = luciferase)
T1 construct: Model misfolded (structurally abnormal) protein, co-expressed in HeLa cells; Derived from the Addgene plasmid FlucDM-HA-GFP11-N1; also called R188Q/R261Q double mutant of firefly luciferase; aggregated mutant luciferase; not shown: HA tag
Assay: co-immunoprecipitation with anti-FLAG M2 gel from HeLa lysates, immunoblot

binding result: no binding
B1: FLAG-LONRF2-LonSBm (P5A) (enzyme)
chain: MSPEPVPPPPPPQCPGCDRAEPIAQRLEEGDEAFRAGDYEMAAELFRSMLAGLAQPDRGLCLRLGDALARAGRLPEALGAFRGAARLGALRPEELEELAGGLVRAVGLRDRPLSAENPGGEPEAPGEGGPAPEPRAPRDLLGCPRCRRLLHKPVTLPCGLTVCKRCVEPGPARPQVRRVNVVLSGLLEKCFPAECRLRRLAGQARSLQRQQQPEAALLRCDQALELAPDDNSLLLLRAELYLTMKNYEQALQDASAACQNEPLLIKGHQVKAQALSGLGRSKEVLKEFLYCLALNPECNSVKKEAQKVMCEVLFSATANVHENLTSSIQSRLKAQGHSHMNAQALLEEGDAGSSENSSEKSDMLGNTNSSVLYFILGLHFEEDKKALESILPTAPSAGLKRQFPDDVEDAPDLNAPGKIPKKDLSLQRSPNSETEESQGLSLDVTDFECALCMRLLFEPVTTPCGHTFCLKCLERCLDHAPHCPLCKDKLSELLASRNFNITVLAEELIFRYLPDELSDRKRIYDEEMSELSNLTRDVAIFVCAMAFATVPCALHVFEPRYRLMIRRCMETGTKRFGMCLSAEHAGLSEYGCMLEIKDVRTFADGSSVVDAIGISRFRVLSHRHRDGYNTADIEYLEDEKVEGPEYEELAALHDSVHQQSVSWFASLQDRMKEQILSHFGVMPDREPEPQSNPSGPAWSWWILAVLALERKAQLAILGMTSLKERLLAIRRILVIITRKMNSRQELANARERNN
notes: not shown: FLAG tag
